Our source for the Km values is PMC3199254.

A word on the Km: it is the concentration of substrate that gives half-maximal velocity.

Substrate in this data set: O=P(O)(O)O
Nature of the data set: cells, lysate or membranes. The settings on record: intact delta-Pst1 cells grown 24 h in Pi-limiting BG-11; room temperature; transport Km.

B1: Pst2 (Synechocystis sp. PCC 6803 substr. Kazusa) (protein)
chain: GTLNGAGASFPAPLYQRYFAEYKKATGNTVNYNSVGSGAGIRQFIGETVDFGATDAVPTSAQRQQMKRGVVMVPTAGGAVAVVYNLPGKKVQLSRIALGKIFTGELKTWNQVDSKLPNTPIRVVVRADGSGTTDIFTSHLSAISSTFRSKIGASQDPNWGFQVLKGPKNDGVAATVKQTPGAIGYVQDTFARRNEGPNLQTAKVQNKAGQYVEPSLAEANKAISGAKFDANFVAEISDPASGYPIVGLTWLLVYQNNKNANVAKDVKALVRWILTTGQNHNTQLEYTKIPPAVAQRVIAAVNKIK
Turning to B1, the Km was determined as 0.13 µM.
